# Assays:
# Assay in all cases: pulldown
# Details in all cases: 20 nM protein, 1.5 uM RNA pool; 20 mM HEPES pH 7.8, 70 mM KCl, 10 mM NaCl, 10% glycerol, 2 mM DTT, 0.1 ug/uL BSA; 30 min, 4 C
# [1] = target: T1, PK00513.1 (Cannabis sativa) (UniProt A0A7J6DZZ3)
# T1 sequence: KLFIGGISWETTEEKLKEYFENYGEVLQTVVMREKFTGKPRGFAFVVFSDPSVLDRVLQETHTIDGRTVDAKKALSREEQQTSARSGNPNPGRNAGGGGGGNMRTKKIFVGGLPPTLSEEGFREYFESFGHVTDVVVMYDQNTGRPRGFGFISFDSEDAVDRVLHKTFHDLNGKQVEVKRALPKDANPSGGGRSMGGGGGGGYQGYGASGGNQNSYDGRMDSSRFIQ
# [2] = system: T2, PK23097.1 (Cannabis sativa)
# T2 sequence: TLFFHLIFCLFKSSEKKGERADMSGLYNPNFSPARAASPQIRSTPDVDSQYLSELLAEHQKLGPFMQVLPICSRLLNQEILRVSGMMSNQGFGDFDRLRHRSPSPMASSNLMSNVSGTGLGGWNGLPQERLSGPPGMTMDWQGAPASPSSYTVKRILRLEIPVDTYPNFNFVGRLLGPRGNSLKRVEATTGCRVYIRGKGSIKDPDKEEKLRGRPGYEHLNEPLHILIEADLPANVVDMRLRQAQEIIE
# [3] = target: T3, pab-1 (Caenorhabditis elegans) (UniProt Q9U302)
# T3 sequence: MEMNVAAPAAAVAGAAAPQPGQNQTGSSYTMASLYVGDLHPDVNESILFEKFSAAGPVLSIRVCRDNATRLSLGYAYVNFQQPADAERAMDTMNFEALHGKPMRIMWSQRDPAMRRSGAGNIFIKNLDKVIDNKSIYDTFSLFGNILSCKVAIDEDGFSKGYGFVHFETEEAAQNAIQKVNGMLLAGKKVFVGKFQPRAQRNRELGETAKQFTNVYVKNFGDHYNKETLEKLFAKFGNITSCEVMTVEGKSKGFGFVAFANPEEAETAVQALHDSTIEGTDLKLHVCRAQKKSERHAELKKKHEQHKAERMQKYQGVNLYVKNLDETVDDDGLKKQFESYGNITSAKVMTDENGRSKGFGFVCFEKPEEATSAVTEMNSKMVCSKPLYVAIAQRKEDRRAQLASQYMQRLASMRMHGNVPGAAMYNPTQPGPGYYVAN
# [4] = target: fmr1 (Xenopus tropicalis) (UniProt Q6GLC9)
# [5] = target: T4, PK20770.1 (Cannabis sativa) (UniProt A0A7J6HVT3)
# T4 sequence: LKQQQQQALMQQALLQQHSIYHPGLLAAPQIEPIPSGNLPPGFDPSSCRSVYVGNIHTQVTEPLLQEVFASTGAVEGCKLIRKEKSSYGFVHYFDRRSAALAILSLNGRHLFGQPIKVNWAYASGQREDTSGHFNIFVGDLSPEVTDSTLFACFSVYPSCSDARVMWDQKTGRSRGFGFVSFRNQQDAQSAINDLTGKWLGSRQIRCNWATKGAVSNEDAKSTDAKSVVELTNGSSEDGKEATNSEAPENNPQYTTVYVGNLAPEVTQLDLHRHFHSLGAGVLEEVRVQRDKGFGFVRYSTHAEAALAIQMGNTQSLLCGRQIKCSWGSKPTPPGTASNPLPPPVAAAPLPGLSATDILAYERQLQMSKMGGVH
# [6] = target: T5, rbm-28 (Caenorhabditis elegans) (UniProt O62325)
# T5 sequence: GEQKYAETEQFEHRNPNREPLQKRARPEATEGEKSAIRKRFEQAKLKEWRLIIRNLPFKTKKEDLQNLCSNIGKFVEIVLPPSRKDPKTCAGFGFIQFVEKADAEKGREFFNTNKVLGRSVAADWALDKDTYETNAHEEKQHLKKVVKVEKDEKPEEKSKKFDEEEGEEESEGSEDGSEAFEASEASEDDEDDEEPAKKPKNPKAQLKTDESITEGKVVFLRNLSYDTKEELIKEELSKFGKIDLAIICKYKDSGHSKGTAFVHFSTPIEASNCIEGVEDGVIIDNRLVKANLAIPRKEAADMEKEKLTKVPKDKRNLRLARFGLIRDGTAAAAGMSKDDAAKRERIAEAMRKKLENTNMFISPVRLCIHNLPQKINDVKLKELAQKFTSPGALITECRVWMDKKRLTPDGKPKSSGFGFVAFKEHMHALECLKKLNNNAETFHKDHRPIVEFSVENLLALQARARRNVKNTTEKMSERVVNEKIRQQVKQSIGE
# [7] = target: T6, PK05405.1 I85V;D92G;E327K;K328E (Cannabis sativa) (UniProt A0A7J6HVI1)
# T6 sequence: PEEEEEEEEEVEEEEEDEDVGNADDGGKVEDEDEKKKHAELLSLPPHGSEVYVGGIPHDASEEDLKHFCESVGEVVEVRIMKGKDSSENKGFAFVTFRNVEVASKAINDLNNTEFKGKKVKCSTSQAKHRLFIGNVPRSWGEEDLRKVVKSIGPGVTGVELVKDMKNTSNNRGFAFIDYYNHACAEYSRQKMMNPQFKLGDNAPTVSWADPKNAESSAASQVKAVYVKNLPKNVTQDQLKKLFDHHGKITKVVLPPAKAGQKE
# [8] = target: T7, PK16782.1 E6F;T7E (Cannabis sativa) (UniProt A0A7J6H871)
# T7 sequence: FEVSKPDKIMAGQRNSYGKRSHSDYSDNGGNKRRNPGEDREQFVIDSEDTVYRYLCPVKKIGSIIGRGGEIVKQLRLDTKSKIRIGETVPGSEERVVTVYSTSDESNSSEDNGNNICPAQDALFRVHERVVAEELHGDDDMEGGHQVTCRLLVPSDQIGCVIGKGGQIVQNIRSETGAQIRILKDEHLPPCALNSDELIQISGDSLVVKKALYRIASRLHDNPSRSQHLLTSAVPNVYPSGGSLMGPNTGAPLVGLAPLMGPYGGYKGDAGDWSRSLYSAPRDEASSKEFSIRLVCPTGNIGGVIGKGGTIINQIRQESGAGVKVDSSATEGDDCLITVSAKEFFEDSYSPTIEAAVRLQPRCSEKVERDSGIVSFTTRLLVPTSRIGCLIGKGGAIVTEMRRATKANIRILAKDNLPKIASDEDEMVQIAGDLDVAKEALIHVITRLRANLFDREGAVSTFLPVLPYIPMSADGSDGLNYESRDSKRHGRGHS
# Chain of fmr1 (Xenopus tropicalis) (Q6GLC9 170-401): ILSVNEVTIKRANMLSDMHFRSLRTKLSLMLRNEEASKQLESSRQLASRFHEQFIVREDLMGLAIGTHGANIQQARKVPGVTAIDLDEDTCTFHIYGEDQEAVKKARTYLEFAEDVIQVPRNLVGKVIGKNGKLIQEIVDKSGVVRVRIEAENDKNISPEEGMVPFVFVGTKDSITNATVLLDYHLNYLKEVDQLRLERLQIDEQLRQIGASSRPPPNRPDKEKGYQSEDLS
sequence,measurement,setting,value
GUAGGAA [RNAcompete motif RNCMPT00462],binding signal (z-score (mean of top ten 7-mers)),[1],10.4
ACUAAC [RNAcompete motif RNCMPT00465],binding signal (z-score (mean of top ten 7-mers)),[2],12.4
AAAAAA [RNAcompete motif RNCMPT00471],binding signal (z-score (mean of top ten 7-mers)),[3],12.5
AAGACAA [RNAcompete motif RNCMPT00474],binding signal (z-score (mean of top ten 7-mers)),[4],6.01
UUUUUU [RNAcompete motif RNCMPT00464],binding signal (z-score (mean of top ten 7-mers)),[5],14.6
AGACUCU [RNAcompete motif RNCMPT00470],binding signal (z-score (mean of top ten 7-mers)),[6],9.34
UUUUUCG [RNAcompete motif RNCMPT00466],binding signal (z-score (mean of top ten 7-mers)),[7],7.47
AACCAAA [RNAcompete motif RNCMPT00460],binding signal (z-score (mean of top ten 7-mers)),[8],8.43

# Source: article PMC12990809
